B1: Retinoic acid receptor beta, residues 85 to 161; numbered along this chain, P10826 (parent)
chain: YKPCFVCQDKSSGYHYGVSACEGCKGFFRRSIQKNMIYTCHRDKNCVINKVTRNRCQYCRLQKCFEVGMSKESVRND

Variants of: B1
Test: abundance fitness (aPCA) (normalised: wild type 0, dead -1); higher = more abundant; growth selection in yeast, the domain comes from the species named
Conditions: Homo sapiens

Abundance fitness, by site and new letter:
K10: T 0.078; I 0.154; A 0.147; S 0.165; C 0.019; D 0.112; M 0.078; N 0.146; F 0.026; G -0.045; L 0.043; R 0.034; W -0.042; V 0.007; P -0.03; Y 0.115; H 0.024
D9: T -1.01; G -0.588; Q -0.6; K -0.722; E -0.03; Y -0.57; C -0.525; W -0.529; H -0.543; I -0.726; F -0.65; N -0.828; M -0.457; A -0.465; R -0.631; V -0.753; P -1; S -0.71
Y14: S -0.044; V 0.092; A 0.11; W 0.061; C -0.119; I 0.054; H 0.113; P 0.125; G -0.244; L 0.006; T 0.042; E -0.038; R -0.203; N -0.041; K 0.012
V6: W -0.795; R -0.83; L -0.81; Q -0.926; K -0.82; N -0.873; H -0.748; I -0.13; T -0.822; M -0.76; S -0.907; P -0.849; G -0.746
C7: E -1.23; W -0.656; Q -1; Y -0.609; K -0.879; M -0.753; T -0.438; N -0.615; G -1.05; L -0.832; V -0.879; D -0.724; I -0.806; H -0.932; S -0.868; A -0.991; F -0.999
G13: L -0.457; E -0.068; R -0.289; N -0.145; D 0.082; M -0.067; W -0.673; Y -0.206; A -0.325; C -0.334; H -0.265; S -0.055; Q -0.503; K -0.292; T -0.053; I -0.279; V -0.192; F -0.349
Y16: D 0.128; E 0.29; C -0.134; A -0.062
S11: Q -0.33; C -0.414; F -0.377; P -0.088; K -0.242; T -0.254; G -0.165; A -0.21; Y -0.407; N 0.173; D 0; I -0.27; H -0.525; L -0.263; V -0.221
Q8: F -0.092; H 0.055; N -0.035; I -1.01; E 0.111; R -0.263; G 0.044; K 0; W -0.083; M 0.029; C -0.073; S 0.064; A 0.022; D 0.08; V -0.598; P -0.813; T 0.015
H15: F -0.111; V -0.091; N -0.015; W -0.203; C 0.016; L -0.097; I -0.348; T -0.046; A 0.033; M -0.006; D 0.03; G -0.25; K -0.276; Y 0.05; E -0.129
S12: L -0.216; C 0.168; H -0.034; Y -0.364; K -0.207; A 0.057; G -0.242; F -0.205; T 0.067; P -0.227; R -0.32; N 0.023; D 0.16; E -0.041; W -0.106; I -0.096; M -0.102; V 0.011

Reference: the Human Domainome abundance scans (Beltran et al. 2025)
